Protease stability score data for 47 sequences are collected here from the NTF2 design screens of Basanta et al. (2020).

The nature of this data set: protease stability score; higher = more stable; yeast display proteolysis, trypsin and chymotrypsin.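 Note: log10 excess protease needed over predicted unfolded state with 0 meaning unfolded.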
Sequence “EKSIVEFFKKWVTAQRDGDPRQHARYIDPNARLQVGDRVVNGREQAKDDQHKKRKEIKVDMRIKSISASNGTLEVNFREKVDVNGRPITREYRFRFEVRNGRITSLSNQVDKEEQKKLKK” had a protease stability score of 0.157.

With “DEEDVRRMENVVRENNEHRLAQLADKNARMTVGDQTYHGKEKIAEAIRRVQKQVDHMEIERLTIHGDKIRADVTMVVNGQRFRYVVVFNVKNGRLKERSVNFRDERDSEEFKKIEK”, the protease stability score was 0.021.

“DEKQAKKVLKQMVKAVFNNDEELLKKLGKEDVEVQFMDTKYKGPDQLKKILEQYKRYGIEFHIKKTKVEGDKMQVHAQVHLADNTADVTAEYQADNGKVDHTRVQFSDTAKEVFKKG”: the protease stability score was -0.003.

Turning to “DDSFVEKLQELLEDGNFERVADMADPNAQFRYGNRDLHGREELRKDAREFLSRVDHYQVDSFHVDNGQLNVTAQATFDGRDYKFTMTLRAKNGRVKSFKISFTSEQQNRQLDEKRE”, the protease stability score is -0.004.

“DDQHQQKFAEEFNKNLEKGDFHRIAQMADENVRVRYGDKSVNGREHMSQFMKELRDRVDHMEIKDFHASNGKITITFVVNVNGKNITLHISIRVSNGRIHEVSLDPDQLKSLES” came in with a protease stability score of 2.

As to “DERDQRRRMDQARKILKNNDEEKFNRLLDENARMRVGEKVFHGRRQARTHLKRLHEHVDSIRVNHVSVHNGNVEVVVTMQHNGRYRQIRFDMQVHNGRAKEVKIDTS”, the protease stability score stood at 0.091.

As for “DDEKTRDLLRKAMRAFITGDPDTLRHLFDKDARARYGDKEVRGREQIQHQLREIRSTVDHIDVKDMEVQGNHATLSLSLVVNGREVKVRVKIVVHNGRAQSVTMDPHDIRKLNS”, the protease stability score amounted to 1.29.

In the case of “DEKKVKELLVRAVQAYVNGNTEEVKKLLKEDVQLHAVNHTYHGVEQLLKVVKRMKEYGIKLQVTDHKVDGDKVDVKVQFHAAGETKEVTFRVQADGGKVDKVEVHVTEEVQKLAEKG”, the protease stability score is 1.05.

Turning to “DKEALDEIEKAARENDWEKLAKMADPNVTATIGNYRVHGRSQFEKWARRVRQEVDHIEVKSIDVHGEKARVNYVIVFNGHNVTAQVQIEAHNGHITYMEVDYTDEDQVRHVKDMLS”, the protease stability score came to 1.6.

“DEEAHKVAESFIKAYSNGDEDKLKKNVDPNARIQIGDKYIHGMDTFVKEQRKRREQSRYHMSITHVDVQGNEVDVRFKAESEHDGQPHTNRMSVNFTFHNGNIKNVDIQYEP” had a protease stability score of -0.307.

“DEDLLKQADRWVKNLTRGNFKDLQKLFPPDATVQYGDNHIHGMEKISHEWKKEQEEMRIRVDRVQNEHQGEKAVVDLHYKVTHNGKPEENVVILFIEKHNGHMIFMKIQKTG” registered a protease stability score of 0.739.

“DDRIRQVVEEWWKAVETNDPDKAKENVDKDVRVEVGDKQFRGSETLEKRIRDEKDHARVVVRMQSVSVHGDTVDVTYNVVVEVNGNPLRFKAQAFFRARNGRMQSIQFSFSKEDKKRVDG” gave a protease stability score of 0.916.

The sequence “DHKAVEMVEQMWKNLNEGDFKKFTRLIDKDVKYVYGDRRVEGREELVNRFHRKMREMRFQIVRMSLTDHGDKVVVNYTVQFNKNGRPDRKVQRLLVKVENGTIKELRVQEHQ” showed a protease stability score of 1.62.

In the case of “DDEQLKKLAQKFADNMQSGNEEEFDRMAPPEVRVQIGDKTYKGRDKVKEMMKRFRTTADHVRIESFEAHNGQITFNVIIQVNGKSHRIRLRIQARNGQVKQFDLNPDDQRKVEK”, the protease stability score stood at 0.18.

“DDEHIKEFLQVVRRGDPDKILKMIDPNAHLQVGDKDLHGRDAVKKAQDKLETTVDHFEVEEVHFQGDNVVVTYLLNVNGKSITVQLVANIEDGRIKSMRIEARSEEDHKILNEQQG” displayed a protease stability score of 0.693.

The sequence “DEENVKIARELLKNRTSGNEEHFKRLVDPNARFNVGDTRIHGREEYVKQVRDDFRNSRESIDVRSVSASGDKVEVDMKMHFEHNGQPRSKKVILDAKIHNGRLKEYRVEEEK” gave a protease stability score of -0.045.

As for “DERRLEEVARHIRRGDKKHLNRLADPNAQLQYGNQRYTGRERVQTFWRQMITRADHLRVQSVTIHNGRIDAKFEMRVNGNKVEYRLKVQIHNGKAQNVQVNYRDEEDEKRMEENLG”, the protease stability score amounted to 0.183.

In turn, “DEKEYAEQFFRHMEEIYQNGDEDRAQELFDPNARMEVGDKEVHGNEKFREEIHKIKETSDRFSIRVKEIDVHGDKIVVEAERSFEHNGQRRSEVYTVRMVIENGQAKIKSAHHK” came in with a protease stability score of 0.235.

“DEKRLKELLEHVFKQVMNGNEEEVLKHGKPDVQYEYLTKRYEGEDAMRVVIKKIKRIGAEVQVKRREVHGNTMRADFDYHKGDQTVRTTAEAKYEGDQVKEFRVKVTEEHKQVIHQG” gave a protease stability score of 0.104.

As to “DEDKAKEFMRKALHILLEGDPDKFVRMADKDAHIQVGEHTVHGREQVRKFIQELQDKVDHNDVVDYEVRPNHANIEFQMNVNGRTVRMRVRLEFKNGKFKRATFDPDDVRKLHT”, the protease stability score stood at 1.33.

In the case of “DEEQAKKMEHDAKNNNFEKMAEQADPNATAQYGDHRVRGRHEVIDLITHWIEKIDRIEVDSIRVHNGRLEMHFTFEVDGVQVDVVMKAELQNGSLKVLVVTATSEEQQKRLKQAEG”, the protease stability score is 0.234.

In turn, “DEDKEAREIAKKIARDLNRGNQEEVVKQFDPNVRLNIGDKEVTGREEVRKEVKKVQQKFDHADIRIRDYRSEGDSANLDFYLTLTHNGRHDKRRWTLHLENHNGRYIVKHVQHN” had a protease stability score of 0.028.

The sequence “DEEQLKHVAEQLRRLWENNDENQIAQLMDENVEVQVGDKTLHGRDDVRKWAQDLRKSADHVKVHSIRNRGDKVQMDFVVENNGRQTKMEVIAHVHNGRIKSLKLRTK” had a protease stability score of 1.16.

“DSEERHDFAHKVMEVFQQGDPDQMRDMADPNVRLHVGEKNVTGRDRVRTALTEFRQRVDHVQVDHVHVTGDKIVIHATVEINGRRRRVIIVARVRNGRIHEIEVDLK” yielded a protease stability score of 1.61.

Take “DEKKWEQWARHFNQLMKQNDPDTLMQLFDPNARVKYGDKEVHGRTQIVKMWQTLVEQVDHIRIKNYSVSGDHVVIEIIVVVNGQEVEFVFRARVHNGTIKSASIDYRNEEHYKRAQG”: the protease stability score is 0.264.

“DETDLLRKLIHHLKTAVDEGDPDKYVKNFDPNAKIDVGDKQWHGHDEIRKKMEDLVRQADHVRLTIDHMQVQGDKFNIHATIKYDNNGEDVERKFVLTATKKGDKAKAEFVTEQ” yielded a protease stability score of 0.895.

On to “DEEHKAKDAARRMQEVARRNDPTQAKEMIPPDAKVRVGDKDVHGREQVVTLFKKIADQADHLDIQVSSVDIQGDRAVVVFNLRYTINGQDRRNRVVVIFRDHNGHVMILEVQEQ”, for which the protease stability score was 0.514.

Consider “DEEARRVWHKLMDALRTGDPEKFRNNADPNARIQYGNETIHGMRDNARTVMTMLHRLDVEWEIKDVKVRPNRIDVIYVLRVHIDGKPYQVHIQADATFHNGKLQSIRKRVDEDEQRKLDR”, for which the protease stability score worked out at 0.379.

On to “DEHKHAEQHVKELIDALETGDPEKVRKNADEDVSAVYGDTTLQGTDQVVKAVHDIRNRYDSVRVEIKTVHIQNGRVVVTATVVLNQNGKNDTVSANIQLKVDNGRFKLVHDQLG”, for which the protease stability score is 0.739.

Turning to “DRELRQNLHEFWKQQETGNPDELRKMVDPNARIVIGDKTYSGMDNAAQRMAESNQELSVDIKRLDLQASNGRVTIKLDAVKNHNGQPSRKTVTQTIRIHNGRIKHISMREDG”, the protease stability score was -0.448.

“DEDRMKRLVRIFEHGDEDKLRKQADENATLKVGNHEIHGREEVQTFAQILKERVDHFHVRRVDLKGNSITALVRATVNGQSVEFKVIIVVQNGRIKKITIHATSEEQMKQLDKLFS” showed a protease stability score of 0.959.

The sequence “DEHAEDLFRQLKEAEDTGDEDHFRRLVDPNAHFEIGNKHVHGREERATQMKQQKKQIRVEIKSMDYRVDGEKVEARVDATYNFNGRPDRMHIVIDIEFHNGRVTNARYRLDEEDLKRVEK” showed a protease stability score of 0.308.

“DETAKKNVELYVQAFEDNDERKLNHMMDPNAHFRIGDRNVHGRDQVKDEVEKRRKEQSVKFKDVKVDVQGDKATIEIRWVVDKNGEPTEDVHKVDLKIHNGRAKYMQWDSVR”: the protease stability score is -0.07.

For “DEKKLLDLARVALEYLQRGNSDQFAKMLDEGGQMNVGDTQINGSDQVKKYVKKFKDQGVHVEYKEQEEKGDTVTVKTEAELGDAKVTFEVHYVAKGDRVERVEVRMNKEQITEFKKS”, the protease stability score is 0.272.

Sequence “DEKKLKELAEELVKADRTGNPDMIKKLGKPDVEFHVANVTMHGSEQVYKYYEKVQRQGNEVHIKRQEVRGDHVEVHYTVKVGGTEVEVTMRLHAKDHKVDKAEAHFNKEYLDHVKKG” registered a protease stability score of 0.413.

Sequence “DEDLERIIRRFMTALETGDPEELKKQMDENVRVQVGDKVLNGREEAAKHWTKVRDDLRIKIDTFHVENNGNRIDLSVDAEAEHNGRPQRYTLHMKAQVHNGKIKNATFTREQ” registered a protease stability score of 0.868.

Take “DEDQQKEVEKMLQDRRTNNPERIRKMFDPNARVQVGDKTINGREDAKRYAEEERDQIRVEYKSINISVHNGRVQVDVRARFNHNGKPETRQFNLDASIHNGRIKEFQQRDDK”: the protease stability score was -0.163.

As for “EENEVEKIMQVAHSGDFDSLVELADPNVTIKVGDKEWHGREHATEFFEKMKRHIDHVDVKSMSAQGDKITVRAHFNVNGDTLDFNLHIVISNGRIQSVKIQVTSHELRKTLTDQLG”, the protease stability score was 1.44.

In turn, “EEEQLHNVVRALNQNDFDKFRKLIDPNARVVVGDKSWHGREDLSNYIKQLQDHVDHRTVKDVKWHNGKIHADVEQTVNGKKMRFVFQAVVKGDKVKELNMKFRDERVETLMRKVLR” gave a protease stability score of 0.14.

“DEEQLKKVVEKLLQAIQNGNLDEIKKMLKDDVTFVLGDKTFRGVEQAVKIVKQLVDKGAEFHVERLEVKGDQAHVKTYWHAGDKTMELTVTYNVRDDKVEKVQADWSEEVKKARKHD” gave a protease stability score of 0.985.

“DENLERQASRLISALLDNDPDLAVELVDENVKVQIGDKTVHGRETVHRHIETLVHHMRMDLDRFHVEVSGEKAKITLDVRFKINGKPIKDTLDVFFTAHNGKIKSVHFRMPEEHKKQVDR” came in with a protease stability score of 0.899.

In turn, “DKHRVEHAKRILEIWTNGDEKSVKDLFDPNVRVDVGDKRITGREQLAREWKRRRDEMEWSLTVHEYKDDPNRVDINVHFNRNKNGRPRTQQQHLRIDMDNGSVRQLRIEDSK” had a protease stability score of 0.216.

With “DEQAQKRAKNFMTAIQSNDPQKVKENVDKDVNIRIGDRIVHGREQLEDYYSHWNTKMRQRVSFKRMDVQGNHVDLKAEASNTNNGQPNHFEVRITITFHNGKIEKANLEFQP”, the protease stability score is -0.422.

“DENHLKEVAEEYNKVLNNGDPDKHVEQVDKDVDVKVGDKTYHGREDDKKWMEHFVERVDHLEVKRVEVRGDKVRIDMVVNVNGDNVKMQVNINLHNGRVQEVSVNPDQLEKFKQ” returned a protease stability score of 0.22.

Turning to “DEDFWRRLVTLMQKNDFDQLARLVDPNAEVTVGDKTYEGRENIQKMWHKLKKQFDHYEIKTYRVKGDKLDMDYVFVVNGQQVRAKVEMRVHNGRLVELRFDARNPDELDTVRRILS”, the protease stability score was determined as 1.55.

Sequence “DEEDMNTLQKMNEKNDEEKLQKLADEDARFVVGDKTLTGHHEFQTFVHRFVKHVDHLQVDSVEVQGNQVDLDVRAEINGRHYRFQIVIIIQNGRLKEYRLQATDEDEEEKFKKMIE” gave a protease stability score of 1.25.

Turning to “DENRLRHLAHHMVEVLKTGNEEEIERLMDENVRLTYGDKEVHGRENVRQYIRQLREEIDHFSVQEIDVSGDKVTIVFTFIVNGQRVRAVLKVRFHNGRIVEATIEYTDEDQKRRADS”, the protease stability score is 1.35.
